Test results reported in patent US20070110747A1 (Amgen, published 2007).
Blank lines part the entries; values can stand above or below the binder they belong to.

Assays:
[1] = molecular target: T1, human sclerostin, mature form (signal peptide removed) (human, UniProt Q9BQB4 24-213); experiment: Biacore cross-blocking on immobilised human sclerostin; RU of 1:1 mixture, competitor Ab-3
T1 construct: 190 amino acid glycoprotein; also called SOST; recombinant human sclerostin
T1 sequence: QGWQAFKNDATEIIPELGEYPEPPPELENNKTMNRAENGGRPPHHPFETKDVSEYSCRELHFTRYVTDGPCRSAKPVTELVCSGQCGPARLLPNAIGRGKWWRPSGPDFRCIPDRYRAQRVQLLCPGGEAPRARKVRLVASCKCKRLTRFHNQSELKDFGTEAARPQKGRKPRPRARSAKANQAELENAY
Protocol: (§1) The antibodies to be tested were diluted to a concentration of 200 ug/ml in HBS-EP buffer (being 10 mM HEPES pH 7.4, 150 mM NaCl, 3 mM EDTA, 0.005% (v/v) Surfactant P20) and then mixed in a one to one molar ratio (on a binding site basis) to generate the test mixture. This test mixture thus contained each antibody at a concentration of 100 ug/ml (1.3 um on a binding site basis). Separate solutions containing each of the antibodies in the test mix alone were also prepared. These solutions contained the individual antibodies in HBS-EP buffer at a concentration of 100 ug/ml (1.3 um on a binding site basis).
(§2) 20 μL of the test mixture was passed over the sclerostin-coated chip at a flow rate of 10 μL/min and the amount of binding recorded. The chip was then treated with two 60 second pulses of 30 mM HCl to remove all of the bound antibody. A solution containing only one of the antibodies of the test mixture (at 1.3 μM in the same buffer as the test mixture on a binding site basis) was then passed over the chip in the same manner as the test mixture and the amount of binding recorded. The chip was again treated to remove all of the bound antibody and finally a solution containing the other antibody from the test mixture alone (at 1.3 μM in the same buffer as the test mixture on a binding site basis) was passed over the chip and the amount of binding recorded.
(§3) The table below show the results from cross-blocking assays on a range of different antibodies. The values in each square of the table represent the amount of binding (in RU) seen when the antibodies (at 1.3 μM on a binding site basis) or buffer indicated in the top row of the table were mixed with the antibodies (at 1.3 uM on a binding site basis) or buffer indicated in the first column of the table.

[2] = molecular target: T1, human sclerostin, mature form (signal …); experiment: Biacore cross-blocking on immobilised human sclerostin; RU of 1:1 mixture, competitor Ab-19
Protocol: as §1, §2, §3

[3] = molecular target: T1, human sclerostin, mature form (signal …); experiment: Biacore cross-blocking on immobilised human sclerostin; RU of 1:1 mixture, competitor Ab-13
Protocol: as §1, §2, §3

[4] = molecular target: T1, human sclerostin, mature form (signal …); experiment: Biacore cross-blocking on immobilised human sclerostin; RU of 1:1 mixture, competitor Ab-4
Protocol: as §1, §2, §3

[5] = molecular target: T1, human sclerostin, mature form (signal …); experiment: Biacore cross-blocking on immobilised human sclerostin; RU of 1:1 mixture, competitor Ab-A
Protocol: as §1, §2, §3

[6] = molecular target: T2, rat sclerostin peptide KWWRPNGPDFRCIPDRYRAQRV (rat); experiment: ELISA on rat sclerostin peptides coupled to sulfhydryl binding plates, antibody at 1 ug/ml
T2 construct: Coupled to the plate through its cysteine
T2 peptide: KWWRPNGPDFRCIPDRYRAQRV
Protocol: A series of overlapping peptides (each peptide being approximately 20-25 amino acids long) were synthesized based on the known amino acid sequence of rat sclerostin (SEQ ID NO:98). […] This enabled the peptides to be bound to the assay plates by covalent coupling, using commercially available sulfhydryl binding plates (Costar), at a concentration of […], in phosphate buffered saline (PBS: pH 6.5) containing 1 mM EDTA. Following incubation for 1 hour at room temperature, the plates were washed three times with PBS containing 0.5% Tween 20. The plates were blocked by incubation with a PBS solution containing 0.5% fish skin gelatin (Sigma) for 30 minutes at room temperature and then washed three times in PBS containing 0.5% Tween 20.
Antibodies to be tested were diluted to 1 μg/ml in PBS containing 0.5% fish skin gelatin and incubated with the peptide-coated plates for 1 hour at room temperature. Excess antibody was removed by three washes with PBS, 0.5% Tween 20. […] Finally the plates were incubated with a horseradish peroxidase chromogenic substrate (TMB-Stable Stop, RDI) for 5 minutes at room temperature, the color development was stopped with acid, and the plates' optical density measured at 450 nm.

B2: Antibody 3 (antibody, mouse IgG1, kappa)
light: EIVLTQSPALMAASPGEKVTITCSVSSTISSNHLHWFQQKSDTSPKPWIYGTSNLASGVPVRFSGSGSGTSYSLTISSMEAEDAATYYCQQWSSYPLTFGAGTKLELRRADAAPTVSIFPPSSEQLTSGGASVVCFLNNFYPKDINVKWKIDGSERQNGVLNSWTDQDSKDSTYSMSSTLTLTKDEYERHNSYTCEATHKTSTSPIVKSFNRNEC
heavy: EVQLQQSGAELVRPGALVKLSCTASDFNIKDFYLHWMRQRPEQGLDWIGRIDPENGDTLYDPKFQDKATLTTDTSSNTAYLQLSGLTSETTAVYYCSREADYFHDGTSYWYFDVWGAGTTITVSSAKTTPPSVYPLAPGSAAQTNSMVTLGCLVKGYFPEPVTVTWNSGSLSSGVHTFPAVLQSDLYTLSSSVTVPSSTWPSETVTCNVAHPASSTKVDKKIVPRDCGCKPCICTVPEVSSVFIFPPKPKDVLTITLTPKVTCVVVDISKDDPEVQFSWFVDDVEVHTAQTQPREEQFNSTFRSVSELPIMHQDWLNGKEFKCRVNSAAFPAPIEKTISKTKGRPKAPQVYTIPPPKEQMAKDKVSLTCMITDFFPEDITVEWQWNGQPAENYKNTQPIMDTDGSYFIYSKLNVQKSNWEAGNTFTCSVLHEGLHNHHTEKSLSHSPGK
notes: also called Ab-3
binding (RU) [2]: 896 RU
binding (RU) [3]: 428 RU
binding (RU) [4]: 845 RU
binding (RU) [5]: 952 RU

B3: Antibody 4 (antibody, mouse IgG1, kappa, V domains shown)
VH: EVQLQQSGPELMKPGASVKMSCKASGYTFTDYNMHWVKQNQGKTLEWIGEINPNSGGAGYNQKFKGKATLTVDKSSTTAYMELRSLTSEDSAVYYCARLGYDDIYDDWYFDVWGAGTTVTVSS
VL: DIQMTQITSSLSASLGDRVSISCRASQDISNYLNWYQQKPDGTFKLLIFYTSRLLSGVPSRFSGSGSGTDYSLTIYNLEQEDFATYFCQQGDTLPYTFGGGTKLEIKR
notes: also called Ab-4
binding (RU) [1]: 869 RU
binding (RU) [2]: 822 RU
binding (RU) [3]: 1020 RU
binding (RU) [5]: 860 RU

B5: Antibody 13 (antibody, mouse IgG1, kappa, V domains shown)
VH: EVQLQQSGPELVKPGASVKMSCKASGYTFTDYYMNWVKQSHGESLEWIGDINPYNDDTTYNHKFKGKATLTVDKSSNTAYMQLNSLTSEDSAVYYCARETAVITTNAMDYWGQGTSVTVSS
VL: QIVLTQSPAIMSASPGEKVTMTCRASSSVTSSYLNWYQQKPGSSPKLWIYSTSNLASGVPARFSGSGSGTSYSLTISSVEAEDAATYYCQQYDFFPSTFGGGTKLEIKR
notes: … = EVQ); also called Ab-13
binding (RU) [1]: 432 RU
binding (RU) [2]: 1040 RU
binding (RU) [4]: 1010 RU
binding (RU) [5]: 1110 RU

The next lines start with the values.

binding (RU) [1]: 946 RU
binding (RU) [2]: 868 RU
binding (RU) [3]: 1080 RU
binding (RU) [4]: 833 RU
B1: Antibody A (antibody, mouse IgG1, kappa, V domains shown)
VH: QSLEESGGRLVTPGTPLTLTCTASGFSLSSYWMNWVRQAPGEGLEWIGTIDSGGRTDYASWAKGRFTISRTSTTMDLKMTSLTTGDTARYFCARNWNLWGQGTLVTVSS
VL: AQVLTQTPASVSAAVGGTVTINCQSSQSVYDNNWLAWFQQKPGQPPKLLIYDASDLASGVPSRFSGSGSGTQFTLTISGVQCADAATYYCQGAYNDVIYAFGGGTEVVVKR
notes: Rabbit-mouse chimeric antibody; mature chains (signal peptides cleaved off); also called Ab-A; Mab-A

binding (RU) [1]: 892 RU
binding (RU) [3]: 1020 RU
binding result [6]: binds
binding (RU) [4]: 789 RU
binding (RU) [5]: 863 RU
B4: Antibody 19 (antibody, V domains shown)
VH: EVQLQQSGPELVKPGASVKMSCKASGFTFTDYIMHWVKQKPGQGLEWIGYINPYNDDTEYNEKFKGKATLTSDKSSSTAYMDLSSLTSEGSAVYYCARSIYYYDAPFAYWGQGTLVTVSS
VL: DIQMTQTTSSLSASLGDRVNISCRASQDISSYLNWYQQKPDGTVKLLIYSTSRLNSGVPSRFSGSGSGTDYSLTISNLAQEDIATYFCQQDIKHPTFGGGTKLELKR
notes: also called Ab-19
